This is an account of results in US20140050738A1 (CANCER RESEARCH TECHNOLOGY, published 2014).

Assay [1] addresses T1, recombinant human TACE ectodomain (Arg215-Arg651) (human, UniProt P78536 215-651).
T1 construct: Mature ectodomain from baculovirus-infected sf9 cells; also called complete TACE ectodomain; ADAM17 ectodomain
The assay is described as follows: SPR (Biacore T100, 37 C): N-TIMP-3 amine-coupled to a CM5 chip, TACE ectodomain injected (traces labelled 5 to 50 nM) [panel C, upper right]. The procedure:
(§1) Results represent the mean values of blank-subtracted technical triplicates per concentration variable. All experiments were performed on a Biacore T100 (GE Healthcare) at 37° C. with a flow-rate of […]. Binding constants were calculated using Biacore T100 Evaluation Software (1:1 binding model; Rmax <200 RU; tc >1×10⁸; Chi²<0.5 RU².

Assay [2] deals with T1, recombinant human TACE ectodomain …. The assay is described as follows: cell-based or functional assay.
For assay [3] the target is unchanged. The assay is described as follows: cell-based or functional assay. The source holds these as a separate data set.
For assay [4], the target named is T2, recombinant human TACE catalytic domain (Arg215-Val477-GlySer-His6) (human, UniProt P78536 215-477). The assay is described as follows: cell-based or functional assay.
In the next assay the target is cell surface TACE (human, UniProt P78536 215-824). The assay is described as follows: cell-based or functional assay.
Assay [5] has as its target T2, recombinant human TACE catalytic domain …. The assay is described as follows: SPR (Biacore T100, 37 C): N-TIMP-3 amine-coupled to a CM5 chip, TACE catalytic domain injected (traces labelled 0.5 to 5 nM) [panel C, upper left]. The procedure: as §1
(In general: Surface plasmon resonance follows binding to a sensor surface in real time, without labels.)

The target of assay [6] is T1, recombinant human TACE ectodomain …. The assay is described as follows: SPR; ratio of the KD for the isolated catalytic domain to the KD for the ectodomain. As for the experimental part:
as §1

Assay [7] has the same target. The assay is described as follows: competition ELISA: immobilised TACE ectodomain pre-incubated with titrated N-TIMP-3, then probed with D1(A12) FAb [panel B]. A general note: ELISA stands for enzyme-linked immunosorbent assay.
For assay [8] the target is unchanged. The assay is described as follows: SPR (Biacore T100, 37 C); N-TIMP-3 amine-coupled to CM5 chip, titrated TACE injected; 1:1 model. The procedure:
as §1

The target of assay [9] is T2, recombinant human TACE catalytic domain …. The description is as above. As for the experimental part:
as §1

Assay [10] has the same target. The assay is described as follows: cell-based or functional assay. The source holds these as a separate data set.
Assay [11] has as its target T1, recombinant human TACE ectodomain …. The assay is described as follows: SPR (Biacore T100, 37 C); FAb amine-coupled to CM5 chip, titrated TACE injected; 1:1 model. As for the experimental part:
as §1

Assay [12] has as its target T2, recombinant human TACE catalytic domain …. The assay is described as above. The procedure: as §1
Assay [13] has as its target T1, recombinant human TACE ectodomain …. The assay is described as follows: inverted titration ELISA.
Assay [14] deals with T2, recombinant human TACE catalytic domain …. The assay is described as follows: inverted titration ELISA.
The target in assay [15] is T1, recombinant human TACE ectodomain …. The assay is described as follows: SPR (Biacore T100, 37 C): D1(A12) FAb amine-coupled to a CM5 chip, TACE ectodomain injected (traces labelled 0.25 to 6 nM) [panel C, lower right]. As for the experimental part:
as §1

The target is the same in assay [16]. The assay is described as follows: inverted titration ELISA; ratio of the EC50 for the catalytic domain to the EC50 for the ectodomain.
Assay [17] concerns the target T2, recombinant human TACE catalytic domain …. The assay is described as follows: SPR (Biacore T100, 37 C): D1(A12) FAb amine-coupled to a CM5 chip, TACE catalytic domain injected (traces labelled 1 to 15 nM) [panel C, lower left]. As for the experimental part: as §1
Assay [18] deals with T1, recombinant human TACE ectodomain …. The assay is described as follows: competition ELISA: 100 nM immobilised TACE ectodomain pre-incubated with titrated D1(A12) FAb, then probed for N-TIMP-3 binding [panel A].
Assay [19] addresses recombinant human TACE catalytic domain (Arg215-Val477-GlySer-His6) (human) (UniProt P78536). The assay is described as follows: cell-based or functional assay.
For assay [20], the target named is recombinant human TACE ectodomain (Arg215-Arg651) (human) (UniProt P78536). The assay is described as follows: cell-based or functional assay.
Sequence of recombinant human TACE ectodomain (Arg215-Arg651) (human) (P78536 215-651): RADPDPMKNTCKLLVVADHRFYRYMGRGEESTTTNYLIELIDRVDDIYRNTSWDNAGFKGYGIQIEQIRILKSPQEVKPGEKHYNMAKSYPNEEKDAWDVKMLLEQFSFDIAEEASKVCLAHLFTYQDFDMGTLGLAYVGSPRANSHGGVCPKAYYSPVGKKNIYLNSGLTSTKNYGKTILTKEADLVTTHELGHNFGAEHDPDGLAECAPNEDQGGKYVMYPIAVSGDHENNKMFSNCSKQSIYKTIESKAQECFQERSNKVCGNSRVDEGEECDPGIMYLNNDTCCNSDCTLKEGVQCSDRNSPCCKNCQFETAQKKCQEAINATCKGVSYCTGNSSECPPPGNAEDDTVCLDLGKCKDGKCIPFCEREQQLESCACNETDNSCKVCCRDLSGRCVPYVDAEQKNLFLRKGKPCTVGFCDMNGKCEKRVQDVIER

Sequence of cell surface TACE (P78536 215-824): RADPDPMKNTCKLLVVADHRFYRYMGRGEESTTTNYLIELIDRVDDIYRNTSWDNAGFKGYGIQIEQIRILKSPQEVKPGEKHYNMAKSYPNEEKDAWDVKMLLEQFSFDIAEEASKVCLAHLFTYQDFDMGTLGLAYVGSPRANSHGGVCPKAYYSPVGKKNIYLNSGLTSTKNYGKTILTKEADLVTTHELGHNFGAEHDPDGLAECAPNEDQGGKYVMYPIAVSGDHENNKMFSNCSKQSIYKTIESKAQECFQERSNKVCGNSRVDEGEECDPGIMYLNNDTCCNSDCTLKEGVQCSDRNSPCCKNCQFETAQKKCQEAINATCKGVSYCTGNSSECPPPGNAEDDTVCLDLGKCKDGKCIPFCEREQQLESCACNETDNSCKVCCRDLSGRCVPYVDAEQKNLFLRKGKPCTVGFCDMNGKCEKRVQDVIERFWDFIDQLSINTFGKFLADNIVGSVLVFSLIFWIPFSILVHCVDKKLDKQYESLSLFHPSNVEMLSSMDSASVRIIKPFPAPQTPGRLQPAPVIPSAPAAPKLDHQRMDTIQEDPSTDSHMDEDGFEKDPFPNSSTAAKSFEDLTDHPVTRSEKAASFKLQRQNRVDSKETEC
T1 sequence (P78536 215-651): as the sequence (P78536 215-651) above
T2 sequence (P78536 other isoform, or with tags, fused parts or gaps limits assumed): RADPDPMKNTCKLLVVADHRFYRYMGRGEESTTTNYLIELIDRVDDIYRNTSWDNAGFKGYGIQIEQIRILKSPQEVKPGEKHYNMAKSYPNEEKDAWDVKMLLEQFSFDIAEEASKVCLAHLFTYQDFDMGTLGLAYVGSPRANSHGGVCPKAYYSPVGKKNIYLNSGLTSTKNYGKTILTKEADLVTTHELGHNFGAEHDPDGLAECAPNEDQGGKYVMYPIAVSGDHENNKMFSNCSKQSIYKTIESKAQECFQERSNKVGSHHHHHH
Sequence of recombinant human TACE catalytic domain (Arg215-Val477-GlySer-His6) (human) (P78536 other isoform, or with tags, fused parts or gaps limits assumed): as above

B1: N-TIMP-3 (other, UniProt P35625 24-144, looked up)
chain: CTCSPSHPQDAFCNSDIVIRAKVVGKKLVKEGPFGTLVYTIKQMKMYRGFTKMPHVQYIHTEASESLCGLKLEVNKYQYLLTGRVYDGKMYTGLCNFVERWDQLTLSQRKGLNYRYHLGCN
notes: domain: N-terminal fragment; also called amino-terminal domain of TIMP-3
As to B1, in assay [1], the koff (usually the first-order rate constant of dissociation) stood at 5.2e-05 s⁻¹ and the on-rate (kon) (as a rule, the second-order rate constant of association) turned out to be 7200 M⁻¹ s⁻¹. Moreover, in assay [2], the “IC50, quenched-fluorescent (QF) peptide cleavage assay” value was found to be 3.2 nM. Besides, in assay [3], the “Delta (IC50 ectodomain against IC50 catalytic domain)” value stood at 5.2 fold and the “IC50 (nM), QF-peptide assay” value is 3.1 nM. For the same molecule, in assay [4], the “IC50 (nM), QF-peptide assay” value is 0.6 nM. Further, in the assay with cell surface TACE, the “IC50 (nM), PMA-stimulated shedding of Amphiregulin from PC3 cells” value amounted to 53.3 nM; the “IC50 (nM), PMA-stimulated shedding of HB-EGF-AP from HeLa cells” value came to 47.3 nM; the “IC50 (nM), PMA-stimulated shedding of TGF-α from IGROV-1 cells” value came out at 44.5 nM; the “IC50 (nM), PMA-stimulated shedding of TNF-α from TOV21G cells” value is 48.5 nM. For the same molecule, in the assay with cell surface TACE, the “IC50 (nM), mean value of the five cell shedding assays” value worked out at 48.6 nM and the “IC50 (nM), shedding of TNFR1a from IGROV-1 cells” value worked out at 49.5 nM. In addition, in assay [5], the koff was 2.1e-05 s⁻¹ and the on-rate constant (kon) came to 100000 M⁻¹ s⁻¹. Moreover, the “ΔKD (KD Cat/KD Ecto)” value in [6] was found to be 0.03 fold. In [7], the “IC50 (read off the curve)” value is approximately 20 nM. Also, in assay [8], the Kd (commonly the concentration at which binding is half-saturated) amounted to 7.22 nM. In addition, the Kd in assay [9] came out at 0.211 nM.

B2: D1(A12) FAb (Fab, V domains shown)
VH: EVQLVESGGGLVRPGGSLRLSCAASGFTFSSYAMSWVRQAPGKGLEWVSAISGSGGSTYYADSVKGRFTISRDNTKNSLYLQMTSLRADDTAFYYCVKDFGPGYGTGWFDYWGPGTLVTVSA
VL: DIQMTQSPSSLSASVGDRVTITCRASQSISSYLNWYQQKPGKAPKLLIHDASSLQSGVPSRFSGSGSGTDFTLTISSLQPEDFATYYCQQSFSIPLTFGGGTKMDIKR
notes: Expressed in E. coli periplasm, purified on Protein G; also called monovalent D1(A12) human FAb
As for B2, the “IC50, cleavage of GST-TNF-α (SDS-PAGE densitometry)” value in assay [2] stood at 73.9 nM; in assay [10] it was 125 nM. Also, the “ΔIC50 = IC50 Ecto:N-TIMP-3 / IC50 Ecto:D1(A12), QF-peptide assay” value in [2] was 5.75 fold. Besides, in assay [10], the “ΔIC50 = IC50 Cat:N-TIMP-3 / IC50 Cat:D1(A12), QF-peptide assay” value came to 1.35 fold. In addition, the dissociation constant Kd in [11] was 0.461 nM; in assay [12], 5.21 nM. In addition, the “Delta (IC50 ectodomain against IC50 catalytic domain)” value in [3] came out at 0.8 fold. In addition, the “IC50 (nM), QF-peptide assay” value in assay [3] came to 0.45 nM; in assay [4] it was 0.54 nM. The EC50 – broadly, the concentration giving half of the maximal effect – was 0.92 nM in [13] and 11.1 nM in assay [14]. The off-rate constant (koff) in assay [15] came out at 0.00024 s⁻¹; in [17] it was 0.00058 s⁻¹. Also, the kon in assay [15] came to 530000 M⁻¹ s⁻¹; in assay [17], 110000 M⁻¹ s⁻¹. In addition, the “ΔKD (KD Cat/KD Ecto)” value in assay [6] came to 11.3 fold. In [16], the “ΔEC50 (EC50 Cat/EC50 Ecto)” value worked out at 12.1 fold. Besides, the “IC50 (read off the curve)” value in [18] was approximately 10 nM.

B3: D1(A12) human IgG1 (antibody, V domains shown)
VH: B2 VH
VL: B2 VL
Turning to B3, in the assay with cell surface TACE, the “Delta (IC50 N-TIMP-3 against IC50 D1(A12) IgG1), Amphiregulin, PC3” value amounted to 5.7 fold; the “Delta (IC50 N-TIMP-3 against IC50 D1(A12) IgG1), HB-EGF-AP, HeLa” value amounted to 6 fold; the “Delta (IC50 N-TIMP-3 against IC50 D1(A12) IgG1), TGF-α, IGROV-1” value stood at 4.7 fold; the “Delta (IC50 N-TIMP-3 against IC50 D1(A12) IgG1), TNF-α, TOV21G” value is 4.3 fold. For the same molecule, in the assay with cell surface TACE, the “Delta (IC50 N-TIMP-3 against IC50 D1(A12) IgG1), TNFR1a, IGROV-1” value is 4.7 fold; the “Delta, mean value of the five cell shedding assays” value is 5.1 fold; the “IC50 (nM), PMA-stimulated shedding of Amphiregulin from PC3 cells” value stood at 9.3 nM; the “IC50 (nM), PMA-stimulated shedding of HB-EGF-AP from HeLa cells” value amounted to 7.9 nM. Also, in the assay with cell surface TACE, the “IC50 (nM), PMA-stimulated shedding of TGF-α from IGROV-1 cells” value turned out to be 9.4 nM; the “IC50 (nM), PMA-stimulated shedding of TNF-α from TOV21G cells” value stood at 11.2 nM; the “IC50 (nM), mean value of the five cell shedding assays” value is 9.6 nM; the “IC50 (nM), shedding of TNFR1a from IGROV-1 cells” value came out at 10.4 nM.

B4: D1(A12) scFv (scFv, part only; not given: linker and tags, not shown: small tags and cut ends)
scFv, part: EVQLVESGGGLVRPGGSLRLSCAASGFTFSSYAMSWVRQAPGKGLEWVSAISGSGGSTYYADSVKGRFTISRDNTKNSLYLQMTSLRADDTAFYYCVKDFGPGYGTGWFDYWGPGTLVTVSASDIQMTQSPSSLSASVGDRVTITCRASQSISSYLNWYQQKPGKAPKLLIHDASSLQSGVPSRFSGSGSGTDFTLTISSLQPEDFATYYCQQSFSIPLTFGGGTKMDIKR
For the molecule B4, the IC50, solution-phase QF-peptide assay (wild-type scFv) in assay [19] came out at 2.3 nM; in assay [20], 0.89 nM.
